Test results reported in US20260209350A1 (Alector, published 2026).
Positions count from the first letter of the chain named.

T1: human monomeric His tagged TREM2 protein (human, UniProt Q9NZC2 19-174)
T1 construct: also called hTREM2-HIS
T1 sequence: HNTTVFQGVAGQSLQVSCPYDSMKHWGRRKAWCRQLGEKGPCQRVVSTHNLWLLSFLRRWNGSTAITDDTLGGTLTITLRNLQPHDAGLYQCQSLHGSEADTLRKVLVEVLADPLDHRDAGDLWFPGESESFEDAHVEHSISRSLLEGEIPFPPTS

T2: human TREM2 Fc fusion protein (human, UniProt Q9NZC2 19-174)
T2 construct: also called hTREM2-Fc; not shown: Fc part not specified
T2 sequence: T1 sequence

T3: mouse TREM2 Fc fusion protein (mouse, UniProt Q99NH8 19-171)
T3 construct: also called mTREM2-Fc; not shown: Fc part not specified
T3 sequence (looked up): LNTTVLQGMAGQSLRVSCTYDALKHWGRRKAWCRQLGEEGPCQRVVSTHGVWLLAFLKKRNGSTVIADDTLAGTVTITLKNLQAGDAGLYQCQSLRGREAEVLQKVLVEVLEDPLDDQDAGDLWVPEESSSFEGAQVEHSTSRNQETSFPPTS

T4: human TREM2 on primary human cells (human, UniProt Q9NZC2 19-230)
T4 sequence: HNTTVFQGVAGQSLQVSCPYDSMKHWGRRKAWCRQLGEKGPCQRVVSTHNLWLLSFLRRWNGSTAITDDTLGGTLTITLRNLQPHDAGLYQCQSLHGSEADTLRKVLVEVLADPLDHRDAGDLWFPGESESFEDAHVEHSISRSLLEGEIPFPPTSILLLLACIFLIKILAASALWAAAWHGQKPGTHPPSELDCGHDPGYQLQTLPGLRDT

T5: mouse TREM2 on cells (mouse, UniProt Q99NH8 19-227)
T5 construct: whole, on cells; Used for the recombinant protein on BWZ/BW cells (with mouse DAP12) and for the native protein on mouse macrophages and dendritic cells; the cell type stands under assay; also called mTREM2; mTrem2
T5 sequence (looked up): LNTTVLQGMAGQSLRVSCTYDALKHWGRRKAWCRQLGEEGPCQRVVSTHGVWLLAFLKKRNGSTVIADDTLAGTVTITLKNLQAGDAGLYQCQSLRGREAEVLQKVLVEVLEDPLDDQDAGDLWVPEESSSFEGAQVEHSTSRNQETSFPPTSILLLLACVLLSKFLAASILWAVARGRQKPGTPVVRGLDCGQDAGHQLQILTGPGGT

B1: Ab14 (antibody, human IgG1, V domains shown)
VH: QVQLQESGPGLVKPSQTLSLTCTVSGGSISSGGYYWSWIRQHPGKGLEWIGNIYYSGSTVYNPSLKSRVTISVDTSKNQFSLKLSSVTAADTAVYYCARGLYGYGVLDVWGQGTMVTVSS
VL: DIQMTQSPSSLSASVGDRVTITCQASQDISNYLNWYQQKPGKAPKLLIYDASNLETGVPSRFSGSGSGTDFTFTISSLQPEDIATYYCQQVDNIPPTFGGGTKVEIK
notes: human IgG1
B2: Ab45 (antibody, human IgG1, V domains shown)
VH: QVQLVQSGAEVKKPGASVKVSCKASGYTFTSYYMHWVRQAPGQGLEWMGIINPSGGSTSYAQKFQGRVTMTRDTSTSTVYMELSSLRSEDTAVYYCARGPGYTTALDYYYMDVWGKGTTVTVSS
VL: EIVMTQSPATLSVSPGERATLSCRASQSVSSNLAWYQQKPGQAPRLLIYGASTRATGIPARFSGSGSGTEFTLTISSLQSEDFAVYYCQQLDDWFTFGGGTKVEIK
notes: human IgG1
B3: Ab1 (antibody, human IgG1, V domains shown)
VH: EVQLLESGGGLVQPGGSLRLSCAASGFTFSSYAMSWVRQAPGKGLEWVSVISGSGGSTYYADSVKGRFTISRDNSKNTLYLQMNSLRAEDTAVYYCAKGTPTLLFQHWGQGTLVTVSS
VL: EIVMTQSPATLSVSPGERATLSCRASQSVSSNLAWYQQKPGQAPRLLIYGASTRATGIPARFSGSGSGTEFTLTISSLQSEDFAVYYCQQLPYWPPTFGGGTKVEIK
notes: human IgG1
B4: Ab9 (antibody, human IgG1, V domains shown)
VH: EVQLVQSGAEVKKPGESLKISCKGSGYSFTSYWIGWVRQMPGKGLEWMGIIYPGDSDTTYSPSFQGQVTISADKSISTAYLQWSSLKASDTAMYYCARLHISGEVNWFDPWGQGTLVTVSS
VL: EIVLTQSPATLSLSPGERATLSCRASQSVSSYLAWYQQKPGQAPRLLIYDASNRATGIPARFSGSGSGTDFTLTISSLEPEDFAVYYCQQFSYWPWTFGGGTKVEIK
notes: human IgG1
B5: Ab65 (antibody, human IgG1, V domains shown)
VH: EVQLVQSGAEVKKPGESLKISCKGSGYSFTSYWIGWVRQMPGKGLEWMGIIYPGDSDTRYSPSFQGQVTISADKSISTAYLQWSSLKASDTAMYYCARLGRKPSGSVAFDIWGQGTMVTVSS
VL: B4 VL with F91D, S92Y, Y93S, W96Y
notes: human IgG1
B6: Ab22 (antibody, human IgG1, V domains shown)
VH: EVQLVQSGAEVKKPGESLKISCKGSGYSFTTYWIGWVRQMPGKGLEWMGIIYPGDSDTRYSPSFQGQVTISADKSISTAYLQWSSLKASDTAMYYCARAGHYDGGHLGMDVWGQGTTVTVSS
VL: EIVMTQSPGTLSLSPGERATLSCRASQSVSSSYLAWYQQKPGQAPRLLIYGASSRATGIPDRFSGSGSGTDFTLTISRLEPEDFAVYYCQQDDRSPYTFGGGTKVEIK
notes: human IgG1
B7: Ab2 (antibody, human IgG1, V domains shown)
VH: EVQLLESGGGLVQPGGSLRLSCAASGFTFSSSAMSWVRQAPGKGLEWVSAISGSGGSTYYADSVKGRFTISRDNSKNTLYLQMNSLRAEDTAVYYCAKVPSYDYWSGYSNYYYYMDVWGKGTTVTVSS
VL: B3 VL with M4L, S30G, L91Y, P92F, Y93F, W94Y
notes: human IgG1
B8: Ab7 (antibody, human IgG1, V domains shown)
VH: QVQLVQSGAEVKKPGASVKVSCKASGYTFTSYYMHWVRQAPGQGLEWMGIINPSGGSTTYAQKFQGRVTMTRDTSTSTVYMELSSLRSEDTAVYYCARTSSKERDYWGQGTLVTVSS
VL: B4 VL with N53K, F91R, S92I, Y93S, W94Y, W96I
notes: human IgG1
B9: Ab78 (antibody, human IgG1, V domains shown)
VH: QVQLVESGGGVVQPGRSLRLSCAASGFTFSSYGMHWVRQAPGKGLEWVAVIWYDGSNKYYADSVKGRFTISRDNSKNTLYLQMNSLRAEDTAVYYCARTPYPWIYFDLWGRGTLVTVSS
VL: B4 VL with F91A, S92D, Y93N, W96F
notes: human IgG1
B10: Ab71 (antibody, human IgG1, V domains shown)
VH: QVQLVQSGAEVKKPGASVKVSCKASGYTFTSYYMHWVRQAPGQGLEWMGIINPSGGSTSYAQKFQGRVTMTRDTSTSTVYMELSSLRSEDTAVYYCARDISTHDYDLAFDIWGQGTMVTVSS
VL: B6 VL with S54N, D92A, D93G, R94S, S95H, Y97F
notes: human IgG1
B11: Ab8 (antibody, human IgG1, V domains shown)
VH: QLQLQESGPGLVKPSETLSLTCTVSGGSISSSSYYWGWIRQPPGKGLEWIGSISYSGSTYYNPSLKSRVTISVDTSKNQFSLKLSSVTAADTAVYYCARGPYRLLLGMDVWGQGTTVTVSS
VL: DIQMTQSPSSLSASVGDRVTITCRASQSISSYLNWYQQKPGKAPKLLIYGASSLQSGVPSRFSGSGSGTDFTLTISSLQPEDFATYYCQQIDDTPITFGGGTKVEIK
notes: human IgG1
B12: Ab21 (antibody, human IgG1, V domains shown)
VH: B6 VH
VL: B6 VL with S54N, R94S, S95A
notes: human IgG1; also called antibody 21

molecular target: T1, human monomeric His tagged TREM2 protein; assay: ForteBio or MSD-SET, monovalent
Description: (§1) The binding affinity of each anti-TREM2 antibody was determined by measuring their KD by ForteBio or MSD-SET. […] Briefly, ForteBio affinity measurements were performed by loading IgGs on-line onto AHQ sensors. Sensors were equilibrated off-line in assay buffer for 30 min and then monitored on-line for 60 seconds for baseline establishment. Sensors with loaded IgGs were exposed to 100 nM antigen for 5 minutes, then transferred to assay buffer for 5 min for off-rate measurement. Kinetics were analyzed using the 1:1 binding model.
(§2) Solution equilibrium titrations (SET) were performed in PBS+0.1% IgG-Free BSA (PBSF) with antigen held constant at 50 pM and incubated with 3- to 5-fold serial dilutions of antibody starting at 10 nM. Antibodies (20 nM in PBS) were coated onto standard bind MSD-ECL plates overnight at 4° C. or at room temperature for 30 min. Plates were then blocked for 30 min with shaking at 700 rpm, followed by three washes with wash buffer (PBSF+0.05% Tween 20). SET samples were applied and incubated on the plates for 150s with shaking at 700 rpm followed by one wash. Antigen captured on a plate was detected with 250 ng/mL sulfotag-labeled streptavidin in PBSF by incubation on the plate for 3 min. The plates were washed three times with wash buffer and then read on the MSD Sector Imager 2400 instrument using 1×Read Buffer T with surfactant. The percent free antigen was plotted as a function of titrated antibody in Prism and fit to a quadratic equation to extract the KD. To improve throughput, liquid handling robots were used throughout MSD-SET experiments, including SET sample preparation.

Kd [nM]	Binder
3.19	B1
0.654	B2
6.67	B3
6.32	B4
5.01	B5
1.01	B6

molecular target: T2, human TREM2 Fc fusion protein; assay: ForteBio or MSD-SET, avid

Kd [nM]	Binder
0.592	B7
1.05	B8
0.851	B9
2.77	B10
0.723	B11

molecular target: T3, mouse TREM2 Fc fusion protein; assay: ForteBio or MSD-SET, avid

binding result	Kd [nM]	Binder
no binding	–	B7
–	1.11	B8
no binding	–	B9
no binding	–	B10
no binding	–	B11

molecular target: T4, human TREM2 on primary human cells; assay: cell-based or functional assay

Induction of CD86 & CD83 Human hDC plate (% CD83+CD86+ cells) [%]	Induction of CD86 & CD83 hDC solution (% CD83+CD86+ cells) [%]	Binder
78.7	1.9	B1
65.5	4.3	B2
87.2	3	B3
79.3	5.6	B4
74	1.7	B5
74.5	1.2	B6

molecular target: T5, mouse TREM2 on cells; assay: FACS, WT mouse macrophages
Description: (§3) Cells were harvested, plated at 10⁵/ml in a 96 well plate, washed, and incubated in 100 ul PBS containing 10-50 ug/ml Mab and Fc blocking reagent for 1 hour in ice. Cells were then washed twice and incubated in 100 ul PBS containing 5 ug/ml PE-conjugated secondary antibody for 30 minutes in ice. Cells were washed twice in cold PBS and acquired on a BD FACS Canto. Data analysis and calculation of MFI values was performed with FlowJo (TreeStar) software version 10.0.7.

MFI [MFI]	Binder
145	B1
141	B2
82.3	B3
171	B4
165	B5
110	B6

molecular target: T2, human TREM2 Fc fusion protein; assay: ForteBio or MSD-SET, avid; remark: another data set of the same source
Description: as §1, §2

Kd [nM]	Binder
0.551	B1
0.229	B2
0.705	B3
0.348	B4
0.546	B5
0.306	B6

molecular target: T3, mouse TREM2 Fc fusion protein; assay: ForteBio or MSD-SET, avid; remark: another data set of the same source
Description: as §1, §2

Kd [nM]	Binder
0.62	B1
4.86	B3
1.56	B5
0.34	B6

molecular target: T4, human TREM2 on primary human cells; assay: FACS, primary human dendritic cells

hDC % positive [%]	Binder
75.8	B1
78.8	B2
64.9	B3
65.8	B4
76.9	B5
76.9	B6

molecular target: T1, human monomeric His tagged TREM2 protein; assay: ForteBio or MSD-SET, monovalent; remark: another data set of the same source

Kd [nM]	Binder
24.1	B7
33.4	B8
37.3	B9
64.7	B10
15	B11

molecular target: T5, mouse TREM2 on cells; assay: FACS, WT mouse dendritic cells
Description: as §3

MFI [MFI]	Binder
529	B1
652	B2
393	B3
538	B4
642	B5
451	B6

molecular target: T2, human TREM2 Fc fusion protein; assay: ForteBio or MSD-SET, avid; remark: another data set of the same source
Description: as §1
(§4) Solution equilibrium titrations (SET) were performed in PBS+0.1% IgG-Free BSA (PBSF) with antigen held constant at 50 pM and incubated with 3- to 5-fold serial dilutions of antibody starting at 10 nM. Antibodies (20 nM in PBS) were coated onto standard bind MSD-ECL plates overnight at 4° C. or at room temperature for 30 min. Plates were then blocked for 30 min with shaking at 700 rpm, followed by three washes with wash buffer (PBSF+0.05% Tween 20). SET samples were applied and incubated on the plates for 150s with shaking at 700 rpm followed by one wash. Antigen captured on a plate was detected with 250 ng/mL sulfotag-labeled streptavidin in PBSF by incubation on the plate for 3 min. The plates were washed three times with wash buffer and then read on the MSD Sector Imager 2400 instrument using 1× Read Buffer T with surfactant. The percent free antigen was plotted as a function of titrated antibody in Prism and fit to a quadratic equation to extract the KD. To improve throughput, liquid handling robots were used throughout MSD-SET experiments, including SET sample preparation.

Kd [nM]	Binder
0.344	B12

molecular target: T3, mouse TREM2 Fc fusion protein; assay: ForteBio or MSD-SET, avid; remark: another data set of the same source
Description: as §1, §4

Kd [nM]	Binder
0.227	B12

molecular target: T5, mouse TREM2 on cells; assay: FACS, BWZ T2 cells

MFI [MFI]	Binder
11600	B1
16300	B2
12600	B3
15700	B4
16100	B5
12500	B6

molecular target: T5, mouse TREM2 on cells; assay: FACS, mTrem2 cells

MFI [MFI]	Binder
1430	B7
10900	B8
433	B9
804	B10
523	B11

molecular target: T1, human monomeric His tagged TREM2 protein; assay: ForteBio or MSD-SET, monovalent; remark: another data set of the same source
Description: as §1
Solution equilibrium titrations (SET) were performed in PBS+0.1% IgG-Free BSA (PBSF) with antigen held constant at 50 pM and incubated with 3- to 5-fold serial dilutions of antibody starting at 10 nM. Antibodies (20 nM in PBS) were coated onto standard bind MSD-ECL plates overnight at 4° C. or at room temperature for 30 min. Plates were then blocked for 30 min with shaking at 700 rpm, followed by three washes with wash buffer (PBSF+0.05% Tween 20). SET samples were applied and incubated on the plates for 150s with shaking at 700 rpm followed by one wash. Antigen captured on a plate was detected with 250 ng/mL sulfotag-labeled streptavidin in PBSF by incubation on the plate for 3 min. The plates were washed three times with wash buffer and then read on the MSD Sector Imager 2400 instrument using 1× Read Buffer T with surfactant. […]

Kd [nM]	Binder
1.14	B12
